According to US20230106715A1 (BIOSION, published 2023):

T1: mouse Siglec15-his protein (mouse)
T1 construct: In house made
T1 chain: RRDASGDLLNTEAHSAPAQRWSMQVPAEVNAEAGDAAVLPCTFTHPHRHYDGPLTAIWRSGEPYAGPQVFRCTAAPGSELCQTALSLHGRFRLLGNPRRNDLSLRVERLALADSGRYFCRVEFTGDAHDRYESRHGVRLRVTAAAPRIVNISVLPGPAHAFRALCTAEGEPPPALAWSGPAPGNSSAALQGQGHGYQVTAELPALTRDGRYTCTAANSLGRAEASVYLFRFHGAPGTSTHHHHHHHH

T2: cynomolgus monkey Siglec15-his protein (cynomolgus monkey)
T2 construct: In house made; also called Cynomolgus Siglec15-his; cynomolgus Siglec15
T2 chain: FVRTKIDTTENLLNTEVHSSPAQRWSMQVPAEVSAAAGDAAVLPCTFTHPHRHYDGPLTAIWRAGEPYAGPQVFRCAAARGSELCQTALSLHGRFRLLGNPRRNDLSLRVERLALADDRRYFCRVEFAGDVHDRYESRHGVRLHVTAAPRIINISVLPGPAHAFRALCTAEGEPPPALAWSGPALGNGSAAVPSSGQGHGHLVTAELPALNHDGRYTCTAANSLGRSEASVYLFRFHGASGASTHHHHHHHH

B1: anti-Siglec15 benchmark (ch5G12) (antibody, human IgG1, kappa, V domains shown)
VH: QVQLQQPGAELVKPGASVKMSCKASGYTFTSYWITWVIQRPGQGLEWIGDIYCGSDTMHYNEKFKNKATLTVDTSSSTAYMQLSSLTSEDSAVYYCARWWDYGSSYDYFDYWGQGTTLTVSS
VL: DIKMTQSPSSMYASLGERVTITCKASQDINSYLSWFQQKPGKSPKTLIYRANRLVDGVPSRFSGSGSGQDYSLTISSLEYEDMGIYYCLQYDEFPYTFGGGTKLEIKR
notes: ch5G12 (US 20190202912A1); also called BM; Siglec15-ch5G9
B2: A1E10G7H9 (antibody, V domains shown)
VH: QVQLQESGPGLVKPSGTLSLTCAVSGGSISSSNWWHWVRQPPGKGLEWIGEIYHSGNTNYKPSLKSRVTISVDKSKNQFSLKLSSVTAADTAVYYCARDEGNGWSNAFDIWGQGTMVTVSS
VL: ENVLTQSPGTLSLSPGERVTLSCRASQSVSSSYLAWYQQKPGQAPRFLIYGASGGATGIPDRFSGSGSGTDFTLTISRLEPEDFAVYYCQQYGSSPITFGQGTRLEIK
notes: Fully human antibody from transgenic mouse hybridoma

Columns and labels:
[1] = target: T1, mouse Siglec15-his protein; experiment: indirect ELISA on coated mouse Siglec15-his
Method: (§1) The anti-Siglec15 antibodies' cross-reactions to cynomolgus or mouse Siglec15 proteins were measured. Briefly, 96-well micro plates were coated with 100 μl of 2 μg/ml cynomolgus Siglec15-his protein (in house made with SEQ ID NO: 21), or 2 μg/ml mouse Siglec15-his protein (in house made with SEQ ID NO: 22) in carbonate/bicarbonate buffer (pH 9.6) for 2 hours at 37° C. ELISA plates were washed once with wash buffer (PBS+0.05% v/v Tween-20, PBST) and then blocked with 200 μl/well blocking buffer (5% w/v non-fatty milk in PBST) overnight at 4° C. Plates were washed 4 times and incubated with 100 μl serially diluted anti-Siglec15 antibodies of the disclosure or controls (starting at 66.7 nM, 5-fold serial dilution in PBST with 2.5% w/v non-fatty milk) for 40 minutes at 37° C. […] The reaction was stopped 4 minutes later at room temperature with 50 μl 1M H₂SO₄, and the absorbance of each well was read on a microplate reader using dual wavelength mode with 450 nm for TMB and 630 nm as the reference wavelength, then the OD (450-630) values were plotted against antibody concentration. Data was analyzed using Graphpad Prism software and EC₅₀ values were reported.

[2] = target: T2, cynomolgus monkey Siglec15-his protein; experiment: indirect ELISA on coated cynomolgus Siglec15-his
Method: as §1

[3] = target: T3, human Siglec15-Fc protein (human); experiment: competitive ELISA: biotin-labeled human Siglec15-Fc in solution, competitor coated benchmark
T3 construct: In house made; also called recombinant human Siglec15 protein with human IgG1 Fc at the C-terminus
Method: (§2) The abilities of the anti-Siglec15 antibodies of the disclosure to block benchmark-human Siglec15 binding were measured in a competitive ELISA assay. Briefly, the benchmark was coated on 96-well micro plates at 2 μg/mL in PBS, 100 μl per well, and incubated for 2 hours at 37° C. Then plates were washed once with wash buffer, and blocked with 5% w/v non-fatty milk in PBST overnight at 4° C. The next day, the anti-Siglec15 antibodies of the disclosure or controls were diluted with biotin labeled human Siglec15-Fc protein (prepared in-house with SEQ ID NO: 19, 37 ng/ml in PBST with 2.5% w/v non-fatty milk), starting at 80 nM with a 4-fold serial dilution, and incubated at room temperature for 40 minutes. After plate washing 4 times, the antibody/Siglec15-Fc mixtures were added to benchmark coated plates, 100 μl per well. After incubation at 37° C. for 40 minutes, plates were washed 4 times again using wash buffer. Then the plates were added and incubated with 100 μl/well streptavidin conjugated HRP for 40 minutes at 37° C. […] Finally, TMB was added and the reaction was stopped using 1M H₂SO₄, and the absorbance of each well was read on a microplate reader using dual wavelength mode with 450 nm for TMB and 630 nm as the reference wavelength, then the OD (450-630) values were plotted against antibody concentration. Data was analyzed using Graphpad Prism software and IC₅₀ values were reported.

[4] = target: T3, human Siglec15-Fc protein; experiment: competitive ELISA: biotin-labeled human Siglec15-Fc in solution, competitor coated benchmark; curve levels off at OD about 0.55, inhibition incomplete
Method: as §2

Row | Binder | EC50 [1] [nM] | EC50 [2] [nM] | IC50 [3] [nM] | IC50 [4] [nM]
1 | B1 | 0.402 | 0.307 | 0.338 | 
2 | B2 |  |  |  | ~0.0777
